Assay results from paper PMC10397247.
Values belong to the binder of their own block, whether it stands above or below them.

Columns and labels:
[1] = molecular target: T1, Core_ININ-es_KEEK; test: two-hybrid library CCmax; conditions: mean of both orientations;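 further: natural log of median RNA to DNA barcode read ratio; higher means stronger binding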
T1 chain: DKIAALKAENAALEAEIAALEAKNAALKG

[2] = molecular target: T2, 4H3185-bH; test: two-hybrid library CCNG1;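 further: natural log of median RNA to DNA barcode read ratio; higher means stronger binding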
T2 chain: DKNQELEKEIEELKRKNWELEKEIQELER

[3] = molecular target: T3, 4H3782-bH; test: two-hybrid library CCNG1;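 further: natural log of median RNA to DNA barcode read ratio; higher means stronger binding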
T3 chain: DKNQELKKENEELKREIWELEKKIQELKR

[4] = molecular target: T4, 4H3381-bN; test: two-hybrid library CCNG1;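 further: natural log of median RNA to DNA barcode read ratio; higher means stronger binding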
T4 chain: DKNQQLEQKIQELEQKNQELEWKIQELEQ

[5] = molecular target: T5, 4H2576-bH; test: two-hybrid library CCNG1
T5 chain: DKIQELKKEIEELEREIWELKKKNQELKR

[6] = molecular target: T6, 4H918-bH; test: two-hybrid library CCNG1
T6 chain: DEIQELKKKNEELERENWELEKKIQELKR

[7] = molecular target: T7, 4H607-bH; test: two-hybrid library CCNG1
T7 chain: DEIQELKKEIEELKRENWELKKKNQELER

[8] = molecular target: T8, 4H687-bH; test: two-hybrid library CCNG1
T8 chain: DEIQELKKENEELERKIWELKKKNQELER

[9] = molecular target: T9, 4H3112-bH; test: two-hybrid library CCNG1
T9 chain: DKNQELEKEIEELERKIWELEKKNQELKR

[10] = molecular target: T10, 4H1257-bH; test: two-hybrid library CCNG1
T10 chain: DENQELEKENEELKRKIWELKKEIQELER

[11] = molecular target: T11, 4H3427-bH; test: two-hybrid library CCNG1
T11 chain: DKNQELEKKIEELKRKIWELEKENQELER

[12] = molecular target: T12, 4H3354-bH; test: two-hybrid library CCNG1
T12 chain: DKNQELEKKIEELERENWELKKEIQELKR

[13] = molecular target: T13, 4H1446-bH; test: two-hybrid library CCNG1
T13 chain: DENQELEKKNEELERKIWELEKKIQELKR

[14] = molecular target: T14, 4H72-bH; test: two-hybrid library CCNG1
T14 chain: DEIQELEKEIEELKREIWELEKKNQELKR

[15] = molecular target: T15, 4H3855-bH; test: two-hybrid library CCNG1
T15 chain: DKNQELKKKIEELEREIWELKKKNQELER

[16] = molecular target: T16, 4H953-bH; test: two-hybrid library CCNG1
T16 chain: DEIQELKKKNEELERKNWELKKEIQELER

[17] = molecular target: T17, 4H454-bH; test: two-hybrid library CCNG1
T17 chain: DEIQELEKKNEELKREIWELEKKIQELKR

[18] = molecular target: T18, 4H1828-bH; test: two-hybrid library CCNG1
T18 chain: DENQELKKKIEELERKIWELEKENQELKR

[19] = molecular target: T19, 4H967-bH; test: two-hybrid library CCNG1
T19 chain: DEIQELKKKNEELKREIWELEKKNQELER

[20] = molecular target: T20, 4H331-bH; test: two-hybrid library CCNG1
T20 chain: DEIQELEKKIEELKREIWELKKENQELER

[21] = molecular target: T21, 4H717-bH; test: two-hybrid library CCNG1
T21 chain: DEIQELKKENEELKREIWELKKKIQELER

[22] = molecular target: T22, 4H2729-bH; test: two-hybrid library CCNG1
T22 chain: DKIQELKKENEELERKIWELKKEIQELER

[23] = molecular target: T23, 4H4001-bH; test: two-hybrid library CCNG1
T23 chain: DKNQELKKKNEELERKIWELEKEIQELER

[24] = molecular target: T24, 4H338-bH; test: two-hybrid library CCNG1
T24 chain: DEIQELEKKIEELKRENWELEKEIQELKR

[25] = molecular target: T25, 4H754-bH; test: two-hybrid library CCNG1
T25 chain: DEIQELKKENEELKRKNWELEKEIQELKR

[26] = molecular target: T26, 4H1845-bH; test: two-hybrid library CCNG1
T26 chain: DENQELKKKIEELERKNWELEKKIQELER

[27] = molecular target: T27, 4H797-bH; test: two-hybrid library CCNG1
T27 chain: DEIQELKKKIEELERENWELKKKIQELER

[28] = molecular target: T28, 4H908-bH; test: two-hybrid library CCNG1
T28 chain: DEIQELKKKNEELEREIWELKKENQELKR

[29] = molecular target: T29, 4H2442-bH; test: two-hybrid library CCNG1
T29 chain: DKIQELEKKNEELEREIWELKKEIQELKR

[30] = molecular target: T30, 4H568-bH; test: two-hybrid library CCNG1
T30 chain: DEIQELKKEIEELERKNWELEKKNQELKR

[31] = molecular target: T31, 4H2667-bH; test: two-hybrid library CCNG1
T31 chain: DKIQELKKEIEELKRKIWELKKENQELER

[32] = molecular target: T32, 4H883-bH; test: two-hybrid library CCNG1
T32 chain: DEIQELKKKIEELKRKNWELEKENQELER

[33] = molecular target: T33, 4H2618-bH; test: two-hybrid library CCNG1
T33 chain: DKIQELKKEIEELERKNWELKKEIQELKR

[34] = molecular target: T34, 4H3843-bH; test: two-hybrid library CCNG1
T34 chain: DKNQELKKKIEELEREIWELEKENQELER

[35] = molecular target: T35, 4H3592-bH; test: two-hybrid library CCNG1
T35 chain: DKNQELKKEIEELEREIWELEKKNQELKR

[36] = molecular target: T36, 4H1328-bH; test: two-hybrid library CCNG1
T36 chain: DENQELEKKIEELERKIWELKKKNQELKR

[37] = molecular target: T37, P8A-bS; test: two-hybrid library CCNG1
T37 chain: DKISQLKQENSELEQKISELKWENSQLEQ

[38] = molecular target: T38, 4H2697-bH; test: two-hybrid library CCNG1
T38 chain: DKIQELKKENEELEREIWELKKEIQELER

[39] = molecular target: T39, 4H1369-bH; test: two-hybrid library CCNG1
T39 chain: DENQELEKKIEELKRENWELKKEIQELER

[40] = molecular target: T40, 4H370-bH; test: two-hybrid library CCNG1
T40 chain: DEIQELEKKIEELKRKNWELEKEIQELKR

[41] = molecular target: T41, 4H3601-bH; test: two-hybrid library CCNG1
T41 chain: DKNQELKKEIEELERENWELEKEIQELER

[42] = molecular target: T42, 4H3189-bH; test: two-hybrid library CCNG1
T42 chain: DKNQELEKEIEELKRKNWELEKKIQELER

[43] = molecular target: T43, 4H1193-bH; test: two-hybrid library CCNG1
T43 chain: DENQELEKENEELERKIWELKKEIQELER

[44] = molecular target: T44, 4H1406-bH; test: two-hybrid library CCNG1
T44 chain: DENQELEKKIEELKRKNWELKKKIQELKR

[45] = molecular target: T45, 4H2610-bH; test: two-hybrid library CCNG1
T45 chain: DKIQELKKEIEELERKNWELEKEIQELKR

[46] = molecular target: T46, 4H3907-bH; test: two-hybrid library CCNG1
T46 chain: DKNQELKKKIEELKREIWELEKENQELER

[47] = molecular target: T47, 4H4038-bH; test: two-hybrid library CCNG1
T47 chain: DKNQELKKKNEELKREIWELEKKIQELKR

[48] = molecular target: T48, 4H3606-bH; test: two-hybrid library CCNG1
T48 chain: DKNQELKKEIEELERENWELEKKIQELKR

[49] = molecular target: T49, 4H462-bH; test: two-hybrid library CCNG1
T49 chain: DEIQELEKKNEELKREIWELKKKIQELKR

[50] = molecular target: T50, 4H1387-bH; test: two-hybrid library CCNG1
T50 chain: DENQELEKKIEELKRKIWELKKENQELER

interaction score [1]: 2.15
B1: Core_ININ-es_EKKE (peptide)
chain: DEIAALEAKNAALKAKIAALKAENAALEG

interaction score [2]: -0.808
interaction score [3]: 0.911
interaction score [4]: -0.693
interaction score [5]: 0.394
interaction score [6]: 0.00985
interaction score [7]: -0.218
interaction score [8]: 0.172
interaction score [9]: -0.383
interaction score [10]: -1.44
interaction score [11]: 0.386
interaction score [12]: -0.79
interaction score [13]: -0.833
interaction score [14]: -2.61
interaction score [15]: -0.288
interaction score [16]: -0.825
interaction score [17]: 1.26
interaction score [18]: -0.108
interaction score [19]: -1.63
interaction score [20]: -0.435
interaction score [21]: -0.541
interaction score [22]: 0.0373
interaction score [23]: -0.377
interaction score [24]: -0.528
interaction score [25]: -0.282
interaction score [26]: -1.83
interaction score [27]: -0.73
interaction score [28]: -0.669
interaction score [29]: -0.172
interaction score [30]: -0.399
interaction score [31]: -0.837
interaction score [32]: 0.223
interaction score [33]: 0.0958
B2: 4H1257-bH (peptide)
chain: DENQELEKENEELKRKIWELKKEIQELER

interaction score [3]: 1.32
interaction score [34]: 0.181
interaction score [35]: 0.341
interaction score [36]: 0.732
interaction score [5]: 1.19
interaction score [37]: 0.622
interaction score [6]: -1.33
interaction score [38]: -0.317
interaction score [7]: -1.7
interaction score [8]: -0.482
interaction score [39]: -0.969
interaction score [13]: 0.131
interaction score [14]: -0.782
interaction score [40]: -0.564
interaction score [16]: -1.33
interaction score [41]: 0
interaction score [42]: -0.917
interaction score [19]: -0.174
interaction score [20]: -0.0475
interaction score [43]: -0.399
interaction score [44]: -0.835
interaction score [45]: -0.0229
interaction score [23]: 0.425
interaction score [26]: -0.0802
interaction score [27]: -0.528
interaction score [46]: 0.0514
interaction score [47]: 1.52
interaction score [30]: -0.254
interaction score [48]: -0.559
interaction score [31]: -0.964
interaction score [32]: -0.574
interaction score [49]: -1.11
interaction score [50]: -0.684
B3: 4H1193-bH (peptide)
chain: DENQELEKENEELERKIWELKKEIQELER
